From the nanobody polyreactivity screen of Harvey et al. (2022)

Experiment: yeast display, Sf9 membrane polyspecificity reagent, FACS + sequencing; frameworks hold sequencing errors
Outline: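 Using colony PCR, genes from sorted yeast display clones were amplified, then sequenced on MiSeq at 2 × 250 and filtered by CDR length. The clones had been stained with 10% biotinylated, detergent-solubilized Sf9 membrane reagent for 1 hour at 4 °C and sorted by FACS into low and high (top ~1%) gates on anti-HA and streptavidin fluorescence. Polyreactivity labels come from the gate of origin.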

Sequence	polyreactivity (PSR sort gate)
QVQLVESGGGLVQAGGSLRLSCAASGSIFYANAMGWYRQAPGKERELVAAISRSGGRTYYADSVKGRFTISRDNAKNTVYLQMNSLKPEDTAVYYCNAVYVSYTYQQTRPRYYYWGQGTQVTVSS	high polyreactivity
QVQLVESGGGLVQAGGSLRLSCAASGSIFYAYALGWYRQAPGKERELVAVISRGGITNYADSVKGRFTISRDNAKNTVYLQMNSLKPEDNAVYYCAAATSACGYLRRYGYWGQGTQVTVSS	low polyreactivity
QVQLVESGGGLVQAGGSLRLSCAASGSIFYAYAMGWSRQAPGKERELVATISSVGSTYYADSVKGRFTISRDNAKNTVYLQMNSLKPEDTAVYYCAKPRIVVYKTGYDYWGQGTQVTVSS	low polyreactivity
QVQLVESGGGLVQAGGSLRLSCAASGSIFYAYAMGWYRQAPGKEREFVAVISRGGITNYADSVKGRFTISRDNAKNTVYLQMNSLKPEDTAVYYCAAATSAWGYLRRYGYWGQGTQVTVSS	low polyreactivity
QVQLVESGGGLVQAGGSLRLSCAASGSIFYAYAMGWYRQAPGKERELVAAISSDGSTYYADSVKGRFTISRDNAKNTVYLQMTSLKPEDTAVYYCAASVLAPNAVSGSDYWGQGTQVTVSS	low polyreactivity
QVQLVESGGGLVQAGGSLRLSCAASGSIFYAYVMGWYRQAPGKERELVAAISSGGSTYYADSVKGRFTISRDNAKNTVYLQMNSLKPEDTAVYYCAVGRPSGWSYYTGGDYWGQGTQVTVSS	high polyreactivity
QVQLVESGGGLVQAGGSLRLSCAASGSIFYAYVMGWYRQAPGKERELVAAISSRGGSTHYADSVKGRFTISRDNAKNTVYLQMNSLKPEDTAVYYCAAARGKDGYWGQGTQVTVSS	high polyreactivity
QVQLVESGGGLVQAGGSLRLSCAASGSIFYDNAMGWYRQAPGKEREFVAAISTSGGSTYYADSVKGRFTISRDTAKNTVYLQMNSLKPEDTAVYYCAAEWPDLGYWWWYDVGYGYWGQGTQVTVSS	high polyreactivity
QVQLVESGGGLVQAGGSLRLSCAASGSIFYDNAMGWYRQAPGKERELVAAIDDSDRTYYADSEKGRFTISRDNAKNTVYLQMNSLKPEDTAVYYCARDRWKWHYGYDYWGQGTQVTVSS	low polyreactivity
QVQLVESGGGLVQAGGSLRLSCAASGSIFYDNAMGWYRQAPGKERELVAAITSTGGSTYYADSVKGRFTISRDNAKNTVYLQMNSLKPEDTAVYYCNTPTYLYWGFYTYDYWGQGTQVTVSS	low polyreactivity
QVQLVESGGGLVQAGGSLRLSCAASGSIFYDNGMGWYRQAPGKERELVAAISRGGTTNYADSVKGRFTISRDKAKNTVYLQMNSLKPEDTAVYYCNAETRFTYWGSWYDYWGQGTQVTVSS	low polyreactivity
QVQLVESGGGLVQAGGSLRLSCAASGSIFYDYAMGWYRQATRKERELVPAITNDDSSTYYADSVKGRFTISRDNAKNTVYLQMNSLKPEDTAVYYCRFKYAVAHHFWVYRYDYWGQGTQVTVSS	low polyreactivity
QVQLVESGGGLVQAGGSLRLSCAASGSIFYEYAMGWYRQAPGKEREFVASISWSGGITYYADSVKGRFTISRDNAKNTVYLQMNSLKPEDTAVYYCAADFSWYLYDYDYWGQGTQVTVSA	low polyreactivity
QVQLVESGGGLVQAGGSLRLSCAASGSIFYEYTMGWYRQAPGKERELVAVITSGGTTNYADSVKGRFTISRDNAKNTVYLQMNSLKPEYTAVYYCAAESKNKYDYWGQGTQVTVSS	high polyreactivity
QVQLVESGGGLVQAGGSLRLSCAASGSIFYFNAMGWYRQAAGKEWELVATISRRGGSTYYADSVKGRFTISRDNAKKTVYLQMNSLKPEDTAVYYCAADYYTLYPVYIKRYGYWGQGTQVTVSS	high polyreactivity
QVQLVESGGGLVQAGGSLRLSCAASGSIFYFNTMAWYRQAPGKERELVAVISRRGGSTYYADSVKRRFTISRDNAKNTVYLQMNSLKPEDTAVYYCNAEVFDLWRSFLSPYEYWGQGTQVTVSS	low polyreactivity
QVQLVESGGGLVQAGGSLRLSCAASGSIFYFNVMGWYRQAPGKERELVATITWRDASTNYADSVKARFTISRDNAKNTVYLQMNSLKPEDTAVYYCNADSDWGYFDYDYYYWGQGTEVTVSS	low polyreactivity
QVQLVESGGGLVQAGGSLRLSCAASGSIFYFYAMRWYRQAPGKERELVAAITDGGASTRYADSVKGRFTISRDYAKNTVYLHMNSLKPEDTAVYYCNARKYWKYGSYQYYWGQGTQVTVSW	high polyreactivity
QVQLVESGGGLVQAGGSLRLSCAASGSIFYGNAMGWYRQAPGKERELVAAIDGTGASTYYADSVKGRFTISRDNAKNTVYLKMNSLKPEDTAVYYCNKALTSKDYPVRTVERDYWGQGTQVTVSS	low polyreactivity
QVQLVESGGGLVQAGGSLRLSCAASGSIFYGNAMGWYRQAPGKERELVAAISARGGSTNYADSVKGRFTISRDNAKNTVYLQMNSLKPEDTAVYYCAADTPVWSGYWYDYWGQGTQVTVSS	low polyreactivity
QVQLVESGGGLVQAGGSLRLSCAASGSIFYGNAMGWYRQAPGKERELVAAISKRGGSTYYADSVKGRFTISRDNAKNTVYLQMNSLKPEDTAVYYCAKATAGHTEYYSWGQGTQVTVSS	high polyreactivity
QVQLVESGGGLVQAGGSLRLSCAASGSIFYGNAMGWYRQAPGKERELVAAISNVGRTDYADSVKGRFTISRDNAKNTVYLQMNSLKPEDTAVYYCAAGVYSGYNRYFAPRSWFGYYYWGQGTQVTVSS	low polyreactivity

Sequence	polyreactivity (PSR sort gate)
QVQLVESGGGLVQAGGSLRLSCAASGSIFYGNTMGWYRQAPGKERELVAAISSGGSTKYADSVKGRFTISRDNAKNTVYLQMNSLKPEDTAVYYCAKVAPRSSSSQEYYYWGQGTQVTVSS	low polyreactivity
QVQLVESGGGLVQAGGSLRLSCAASGSIFYGYAMGWYRQAPGKERELVAAISFSGGSTHYADSVKGRFTISRDNAKNTVYLQMNSLKPEDTAVYYCATDSGTPGDDEYWGQGTQVTVSS	low polyreactivity
QVQLVESGGGLVQAGGSLRLSCAASGSIFYGYAMGWYRQAPGKERELVAAISGNGGSTYYADSVKGRFTISRDNAKNTVYLQMNRLKPEDTAVYYCAVEVYHYGFEYDYWGLGTQVTVSS	high polyreactivity
QVQLVESGGGLVQAGGSLRLSCAASGSIFYGYAMGWYRQAPGKERELVAGISNGGSTNYADSVKGRFTISRDNAKNTVYLQMNSLKPEDTAVYYCNRDGTYVYHGGEYCGQGTQVTVSS	low polyreactivity
QVQLVESGGGLVQAGGSLRLSCAASGSIFYGYAMGWYRQAPGKERELVAVITDGGGSTYYADSVKGRFTISRDNAKNTVYLQMNSLKPEDTAVYYCAADSWGPYYYSSYSYDYWGQGTQVTVSS	low polyreactivity
QVQLVESGGGLVQAGGSLRLSCAASGSIFYHNAMGWYRQAPGKERELVAAITWSGSTTYYADSVKGRFTISRDNAKNTVYLQMNSLKPEDTAVYYCNAGNRHGHYDYWGQGTQVTVSS	low polyreactivity
QVQLVESGGGLVQAGGSLRLSCAASGSIFYHYAMGWYRQAPGKERELVAAISWRGASTYYADSVKGRFTISRDNAKNTVYLQMNSLKPEDTAVYYCARLSSSHPLYRDEYWGQGTQVTVSS	high polyreactivity
QVQLVESGGGLVQAGGSLRLSCAASGSIFYHYVMGWYRQAPGKERELVAAISSSGRTYYADSVKGRFTISRDNAKNTVYLQMNSLKPEDTAVYYCAADVHFGVGMDYWGQGTQVTVSS	low polyreactivity
QVQLVESGGGLVQAGGSLRLSCAASGSIFYIYAMGWYRKAPGKERELVASIDSGDSTNYADSVKGRFTISRDNAKNTVYLQMNSLKPEDTAVYYCNADTFSELTYYLYIGMDYWGQGTQVTVSS	low polyreactivity
QVQLVESGGGLVQAGGSLRLSCAASGSIFYIYAMGWYRQAPGKERELVAAITWRGGRTYYADSVKGRFTISRDNAKNTVYLQMNSLKPEDTAVYYCAALYAKYYYRYDYWGQGTQVTVSS	high polyreactivity
QVQLVESGGGLVQAGGSLRLSCAASGSIFYKYGMGWYRQAPGKVRVLVAAIRASGDSTYYADSVKGRFTISRDNAKNTVYLQMNSQKPEDTAVYYCAARPNQSYYGLYYYWGQGTQVTVSS	low polyreactivity
QVQLVESGGGLVQAGGSLRLSCAASGSIFYKYTMGWYRQAPGKERELVAAISRSGGSTYYADSVKGRFTISRDNAKNTVYLQMNSLKPEDTAVYYCATTRRVPGEYWGQGTQVTVSS	high polyreactivity
QVQLVESGGGLVQAGGSLRLSCAASGSIFYLNAMGWYRQAPGKERELVAAINRGGSTSYADSVKGRFTISRDNAKNTVYLQMNSLKPEDTAVYYCAADHGGVQYSVRYDYWGQGTQVTVSS	low polyreactivity
QVQLVESGGGLVQAGGSLRLSCAASGSIFYLYAMGWYRQAPGKERELVAAISSSGGRTYYADSVKGRFTISRDNAKNTVYLQMNSLKPEDTAVYYCAARYWAKYSYGYWGQGTQVTVSS	high polyreactivity
QVQLVESGGGLVQAGGSLRLSCAASGSIFYLYAMGWYRQAPGKERELVAAITSGDSTTYADSVKGRFTISRDNAKNTVYLQMNSLKPEDTAVYYCAADWPGLVGYHNSAENDYWGQGTQVTVSS	low polyreactivity
QVQLVESGGGLVQAGGSLRLSCAASGSIFYLYAMGWYRQAPGKERELVATITRGGSTNYADSVKGRFRISRDNAKNTDYVQMNSLKPEDTARYYCNARFFKPPYSKWSSRFDYWGQGTQVTVSS	high polyreactivity
QVQLVESGGGLVQAGGSLRLSCAASGSIFYPYAMGCYRQAPGKERELVAAITSSGGSTYYADSVKGRFTISRDNAKNTVYLQMNSLKPEDTAVYYCNAKGPYTAIYYKPFLGSTRFEYWGQGTQVTVSS	high polyreactivity
QVQLVESGGGLVQAGGSLRLSCAASGSIFYPYAMGWYRQAPGKERELVAAISYSGGSTYYADSVKGSFTISRDNAKNTVYLQMNSMKPEDTAVYYCNRRYWRRPYYKYDYWGQGTQVTVSS	high polyreactivity
QVQLVESGGGLVQAGGSLRLSCAASGSIFYPYAMGWYRQAPGKERELVAAITSSTGSTYYADSVKGRFTISRDHAKNTVYLQMNSLKPEDTAVYYCAAAGYWSYFMMDYWGQGTQVTVSS	low polyreactivity
QVQLVESGGGLVQAGGSLRLSCAASGSIFYPYAMGWYRQAPGKERELVATISWSGSSTYYADSVKGRVTISRDNAKNTVYSQMNSLKPEDTAVYYCAVRYSVLSNYRYYYWGQGTQVTVSS	low polyreactivity
QVQLVESGGGLVQAGGSLRLSCAASGSIFYPYDMGWYRQAPGKERELVATINWSSGRTNYADSVKGRFTISRDNAKNTVYLQMNSLKPEDTAVYYCNAVTYSRRYAYYYWGQATQVTVSS	high polyreactivity
